The results in this text go back to the RNAGym collection of RNA variant scans (doi:10.7554/elife.80360).

The labels stand for the following.
B1: Hammerhead Ribozyme (parent)
chain: ACCGGAUGUGCUUUCCGGUCUGAUGAGUCCGUGAGGACGAAACAG

Variants of B1 are the subject of this data set. Description: self-cleavage, relative activity (ratio to wild type); higher = more cleavage; co-transcriptional.
ACCGGAUGUGCUUUCCGGUCUCAUGCGUCCGUGAGGACGAAACAG: the self-cleavage was 0.3.

For ACCGGAUGUGCUUUCCGGUCUCAUGUGUCCGUGAGGACGAAACAG, the self-cleavage was determined as 0.343.

On to ACCGGAUGUGCUUUCCGGUCUCAUGGGUCCGUGAGGACGAAACAG, for which the self-cleavage was 0.253.

As for ACCGGAUGUGCUUUCCGGUCUCAUGAGUCAGUGAGGACGAAACAG, the self-cleavage stood at 0.346.

As for ACCGGAUGUGCUUUCCGGUCUCAUGAGUCGGUGAGGACGAAACAG, the self-cleavage is 0.351.

As for ACCGGAUGUGCUUUCCGGUCUCAUGAGUCUGUGAGGACGAAACAG, the self-cleavage was determined as 0.36.

ACCGGAUGUGCUUUCCGGUCUCAUGAGUCCGUGAUGACGAAACAG: the self-cleavage stood at 0.303.

On to ACCGGAUGUGCUUUCCGGUCUCAUGAGUCCGUGACGACGAAACAG, for which the self-cleavage turned out to be 0.336.

For the variant ACCGGAUGUGCUUUCCGGUCUCAUGAGUCCGUGAAGACGAAACAG, the self-cleavage was determined as 0.337.

With ACCGGAUGUGCUUUCCGGUCUCAUGAGUCCGUGAGGACGAAUCAG, the self-cleavage was 0.368.

Regarding ACCGGAUGUGCUUUCCGGUCUCAUGAGUCCGUGAGGACGAACCAG, the self-cleavage is 0.309.

Take ACCGGAUGUGCUUUCCGGUCUCAUGAGUCCGUGAGGACGAAGCAG: the self-cleavage came out at 0.265.

For ACCGGAUGUGCUUUCCGGUCUCAUGAGUCCGUCAGGACGAAACAG, the self-cleavage was 0.381.

For ACCGGAUGUGCUUUCCGGUCUCAUGAGUCCGUAAGGACGAAACAG, the self-cleavage worked out at 0.266.

In the case of ACCGGAUGUGCUUUCCGGUCUCAUGAGUCCGUUAGGACGAAACAG, the self-cleavage amounted to 0.374.

As to ACCGGAUGUGCUUUCCGGUCUCGUGAGUCCGUGAGGACGAAACAG, the self-cleavage turned out to be 0.312.

For the variant ACCGGAUGUGCUUUCCGGUCUCCUGAGUCCGUGAGGACGAAACAG, the self-cleavage was found to be 0.28.

As to ACCGGAUGUGCUUUCCGGUCUCUUGAGUCCGUGAGGACGAAACAG, the self-cleavage was 0.351.

With ACCGGAUGUGCUUUCCGGUCUCAUGAGUCCGUGAGGCCGAAACAG, the self-cleavage was found to be 0.286.

With ACCGGAUGUGCUUUCCGGUCUCAUGAGUCCGUGAGGUCGAAACAG, the self-cleavage was determined as 0.259.

Regarding ACCGGAUGUGCUUUCCGGUCUCAUGAGUCCGUGAGGGCGAAACAG, the self-cleavage came to 0.416.

Regarding ACCGGAUGUGCUUUCCGGUCUCAUGAGUCCCUGAGGACGAAACAG, the self-cleavage turned out to be 0.37.

In the case of ACCGGAUGUGCUUUCCGGUCUCAUGAGUCCUUGAGGACGAAACAG, the self-cleavage is 0.309.

On to ACCGGAUGUGCUUUCCGGUCUCAUGAGUCCAUGAGGACGAAACAG, for which the self-cleavage is 0.25.

As for ACCGGAUGUGCUUUCCGGUCUCAUGAGUACGUGAGGACGAAACAG, the self-cleavage came to 0.296.

Consider ACCGGAUGUGCUUUCCGGUCUCAUGAGUUCGUGAGGACGAAACAG, for which the self-cleavage was found to be 0.3.

As for ACCGGAUGUGCUUUCCGGUCUCAUGAGUGCGUGAGGACGAAACAG, the self-cleavage turned out to be 0.266.

Turning to ACCGGAUGUGCUUUCCGGUCUCAUGAGUCCGUGAGGACGAAACCG, the self-cleavage is 0.369.

For ACCGGAUGUGCUUUCCGGUCUCAUGAGUCCGUGAGGACGAAACGG, the self-cleavage was found to be 0.672.

For the variant ACCGGAUGUGCUUUCCGGUCUCAUGAGUCCGUGAGGACGAAACUG, the self-cleavage is 0.323.

ACCGGAUGUGCUUUCCGGUCUCAUGACUCCGUGAGGACGAAACAG: the self-cleavage worked out at 0.311.

With ACCGGAUGUGCUUUCCGGUCUCAUGAAUCCGUGAGGACGAAACAG, the self-cleavage is 0.359.

Take ACCGGAUGUGCUUUCCGGUCUCAUGAUUCCGUGAGGACGAAACAG: the self-cleavage was determined as 0.352.

On to ACCGGAUGUGCUUUCCGGUCUCAUGAGUCCGUGAGGACGAAAUAG, for which the self-cleavage turned out to be 0.391.

ACCGGAUGUGCUUUCCGGUCUCAUGAGUCCGUGAGGACGAAAAAG: the self-cleavage turned out to be 0.23.

Regarding ACCGGAUGUGCUUUCCGGUCUCAUGAGUCCGUGAGGACGAAAGAG, the self-cleavage was determined as 0.24.

ACCGGAUGUGCUUUCCGGUCUCAUGAGUCCGUGAGGAUGAAACAG: the self-cleavage was 0.315.

As for ACCGGAUGUGCUUUCCGGUCUCAUGAGUCCGUGAGGAGGAAACAG, the self-cleavage was 0.386.

On to ACCGGAUGUGCUUUCCGGUCUCAUGAGUCCGUGAGGAAGAAACAG, for which the self-cleavage worked out at 0.329.

Take ACCGGAUGUGCUUUCCGGUCUCAUGAGUCCGUGCGGACGAAACAG: the self-cleavage was 0.283.

For the variant ACCGGAUGUGCUUUCCGGUCUCAUGAGUCCGUGUGGACGAAACAG, the self-cleavage was found to be 0.318.

In the case of ACCGGAUGUGCUUUCCGGUCUCAUGAGUCCGUGGGGACGAAACAG, the self-cleavage was determined as 0.306.

Consider ACCGGAUGUGCUUUCCGGUCUCAUGAGUCCGUGAGGACGAAACAG, for which the self-cleavage was determined as 0.336.

For ACCGGAUGUGCUUUCCGGUCUAAUGAGUCCGCGAGGACGAAACAG, the self-cleavage turned out to be 0.29.

For the variant ACCGGAUGUGCUUUCCGGUCUAAUGAGUCCGGGAGGACGAAACAG, the self-cleavage came out at 0.264.

For the variant ACCGGAUGUGCUUUCCGGUCUCAUGAGUCCGUGAGAACGAAACAG, the self-cleavage came to 0.317.

Consider ACCGGAUGUGCUUUCCGGUCUCAUGAGUCCGUGAGCACGAAACAG, for which the self-cleavage stood at 0.317.

Take ACCGGAUGUGCUUUCCGGUCUCAUGAGUCCGUGAGUACGAAACAG: the self-cleavage is 0.322.

On to ACCGGAUGUGCUUUCCGGUCUCAUGAGUCCGUGAGGACGCAACAG, for which the self-cleavage is 0.339.

In the case of ACCGGAUGUGCUUUCCGGUCUCAUGAGUCCGUGAGGACGUAACAG, the self-cleavage amounted to 0.342.

ACCGGAUGUGCUUUCCGGUCUCAUGAGUCCGUGAGGACGGAACAG: the self-cleavage was 0.351.

Take ACCGGAUGUGCUUUCCGGUCUCAUAAGUCCGUGAGGACGAAACAG: the self-cleavage stood at 0.409.

As for ACCGGAUGUGCUUUCCGGUCUCAUCAGUCCGUGAGGACGAAACAG, the self-cleavage turned out to be 0.319.

In the case of ACCGGAUGUGCUUUCCGGUCUCAUUAGUCCGUGAGGACGAAACAG, the self-cleavage came to 0.432.

For ACCGGAUGUGCUUUCCGGUCUCAUGAGUCCGUGAGGACGACACAG, the self-cleavage was 0.321.

For ACCGGAUGUGCUUUCCGGUCUCAUGAGUCCGUGAGGACGAGACAG, the self-cleavage is 0.31.

Consider ACCGGAUGUGCUUUCCGGUCUCAUGAGUCCGUGAGGACGAUACAG, for which the self-cleavage turned out to be 0.416.
